Measurements from US20020045591A1 (published 2002).
Numbering of substitutions follows the chain as printed.

T1: Endogenous β-catenin of SW480 human colon carcinoma cells (human, UniProt P35222 2-781)
T1 construct: whole, on cells
T1 sequence (looked up): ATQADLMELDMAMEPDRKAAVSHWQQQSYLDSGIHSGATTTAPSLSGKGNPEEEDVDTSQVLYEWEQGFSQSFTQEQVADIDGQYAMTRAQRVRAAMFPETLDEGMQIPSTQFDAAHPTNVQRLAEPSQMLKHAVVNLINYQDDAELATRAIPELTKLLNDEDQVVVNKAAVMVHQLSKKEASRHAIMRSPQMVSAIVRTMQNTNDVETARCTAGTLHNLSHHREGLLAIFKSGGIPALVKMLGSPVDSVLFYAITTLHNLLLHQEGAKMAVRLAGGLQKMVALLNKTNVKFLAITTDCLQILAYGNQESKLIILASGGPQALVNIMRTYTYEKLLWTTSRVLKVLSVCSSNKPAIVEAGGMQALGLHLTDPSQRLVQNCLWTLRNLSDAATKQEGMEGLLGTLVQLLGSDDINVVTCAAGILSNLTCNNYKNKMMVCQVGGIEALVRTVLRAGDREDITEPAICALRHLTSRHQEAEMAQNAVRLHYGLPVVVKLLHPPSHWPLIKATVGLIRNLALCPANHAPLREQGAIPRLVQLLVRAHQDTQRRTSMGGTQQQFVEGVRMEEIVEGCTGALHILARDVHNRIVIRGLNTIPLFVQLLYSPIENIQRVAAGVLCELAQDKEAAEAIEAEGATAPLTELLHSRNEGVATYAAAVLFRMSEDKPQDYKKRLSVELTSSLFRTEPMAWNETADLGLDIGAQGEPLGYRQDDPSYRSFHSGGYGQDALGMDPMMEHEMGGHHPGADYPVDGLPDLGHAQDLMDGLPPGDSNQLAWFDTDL

B1: Mouse β-catenin (transfected cDNA) (other, UniProt Q02248 2-781, looked up)
chain: T1 sequence (looked up) with P705A
B2: HA-tagged chicken α-catenin (other)
chain: TAVTAGNVNFRWDPKSLEIRTLAVERLLEPLVTQVTTLVNTSNKGPSNKKRGRSKKAHVLAASVEQATENFLDKGDKIAKESQFLKEELVAAVEDVRKQGDLMKSASGEFADDPCSSVKRGNMVRAARALLSAVTRLLILADMADVYKLLVQLKVVEEGILKLRNAGTEQDLGIQYKALKPEVDKLNIMAAKRQQELKDVGHRDQMAAARGILQKNVPILYTASQACLQHFDVAAYKANRDLIYKQLQQAVTGISNAAQATASDDAAQQQGGGGELAYALNNFDKQIIVDPSTFSEQRFRPSLEERLESIISGAALMADSSCTRDDRRERIVAECNAVRQALQDLLSEYMGNAGRKERSDALNSAIDKMTKKTRDLRRQLRKAVMDHVSDSFLETNVPLLVLIEAARNGNEKEVKEYTQVFREHANKLIEVANLACSISNNEEGVKLVRMSASQLEALCPQVINAALALAAKPQSKLAQENMELFKEQWEKQVRVLTDAVDDITSIDDFLAVSENHILEDVNKCVIALQEKDVDGLDRTAGAIRGRAARVIHVVTSEMDNYEPGVYTEKVLEATKLLSNTVMPRFTEQVEAAVEALSSDPAQPMDENEFIDRSRLVYDGIRDIRKAVLMIRTPEELDDSDFETEDFDVRSKTSIQTEDDQLIAGQSARAIMAQLPQEQKAKIAEAVASFQEEKSKLDAEVSKWDDSGNDIIVLAKQMCMIMMEMTDFTRGKGPLKNTSDVISAAKKIAEAGSRMDKLGRTIADHCPDSASKQDLLAYLQRIALYCHQLNICSKVKAEVQNLGGELVVSGVDSAMSLIQAAKNLMNAVVQTVKASYVASTKYQKSQGMASLNLPAVSWKMKAPEKKPLVKREKQDETQTKIKRASQKKHVNPVQALSEFKAMESI
notes: also called HA α-catenin; not shown: 16-amino acids hemaglutinin (HA)-tag of the pCGN vector at the NH2-terminus

Assays:
HA-tagged LEF-1 = assay: cell-based or functional assay
Sequence of HA-tagged LEF-1 (P27782 whole entry): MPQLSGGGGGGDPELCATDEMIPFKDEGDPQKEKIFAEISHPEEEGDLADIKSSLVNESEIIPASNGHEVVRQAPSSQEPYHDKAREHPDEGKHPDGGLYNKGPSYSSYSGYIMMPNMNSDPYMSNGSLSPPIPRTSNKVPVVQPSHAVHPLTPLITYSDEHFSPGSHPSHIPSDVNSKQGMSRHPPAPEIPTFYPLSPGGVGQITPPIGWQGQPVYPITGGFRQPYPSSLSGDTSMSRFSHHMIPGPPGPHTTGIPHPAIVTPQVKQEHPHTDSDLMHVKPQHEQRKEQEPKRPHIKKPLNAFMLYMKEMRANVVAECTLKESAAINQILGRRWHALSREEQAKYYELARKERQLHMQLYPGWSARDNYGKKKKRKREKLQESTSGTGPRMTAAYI

[1] = molecular target: T1, Endogenous β-catenin of SW480 human …; assay: double immunofluorescence, transfected SW480 cells

| Binder | luciferase activity (TOPFLASH reporter) in CHO cells (HA-tagged LEF-1) [fold] | binding result [1] |
| --- | --- | --- |
| B1 | ~5 |  |
| B2 |  | binds |
